Assay results published in US8476072B2, “Meganuclease recombination system” (Cellectis, priority 2008, dated 2013).

Tested on: cGPS CHO-K1 cells
Experiment: Gene targeting (KI assay) of lacZ integration matrix in cGPS CHO-K1 cells, double G418/puromycin selection
Type: cell-based
Settings: cGPS CHO-K1, pTV-DS-lacz integration matrix, G418 + puromycin selection
Method: Transfection: On D day, 0.5 μg of the pTV-DS-lacz (SEQ ID NO: 17) is transfected in cGPS CHO-K1 cells by using the PolyFect® reagent from Qiagen. One day after the transfection of the integration matrix (D+1), 1000 μg of the purified DPV15b/I-CreI N75/6× His (SEQ ID NO: 58) meganuclease protein is directly added into transfected cGPS CHO-K1 cells.
Selection: cGPS CHO-K1 cells are transfected with the protocol described above. 24 hours after transfection, the cells are washed and fresh medium supplemented with 0.6 mg/ml of G418 is added. After 10 days of G418 selection, the culture medium is replaced with complete medium supplemented with G418 at 0.6 mg/ml and puromycin at 10 μg/ml. 3 to 4 days later, double resistant clones are visualized through an inverted microscope. At this step, double resistant clones are either stained for lacz expression monitoring or picked up for amplification and molecular characterization. (see section 2.5)
X-gal staining: Culture medium is removed and LacZ-targeted double resistant cGPS CHO-K1 adherent cells are washed once with PBS. 5 ml of fixing buffer (100 mM phosphate buffer, 1 mM MgCl2, 0.5% (v/v) glutaraldehyde (Prolabo, 25% solution)) is added. After 10 min. of incubation on ice, fixing is replaced by 5 ml of washing buffer (100 mM phosphate buffer, 1 mM MgCl2, 0.02% (v/v) NP40). […]

B1: DPV15b/I-CreI N75/6× His: purified recombinant I-CreI N75 meganuclease with cell-penetrating peptide DPV15b fused at N-terminal and 6x histidine tag at C-terminal (protein)
chain: MGAYDLRRRERQSRLRRRERQSRNTKYNKEFLLYLAGFVDGDGSIIAQIKPNQSYKFKHQLSLTFQVTQKTQRRWFLDKLVDEIGVGYVRDRGSVSNYILSEIKPLHNFLTQLQPFLKLKQKQANLVLKIIEQLPSAKESPDKFLEVCTWVDQIAALNDSKTRKTTSETVRAVLDSLSEKKKSSPAAALEHHHHHH
- number of double resistant cell colonies generated: around 30
- selection frequency: 3×10^−4
